From patent CN108546297A (ACAD OF MILITARY SCIENCES PLA CHINA ACAD OF MILITARY …, dated 2018) come the findings set out here.

Test [1] addresses T1, PD-1/Fc (UniProt Q15116 25-167).
T1 construct: also called PD-1/Fc抗原; PD-1/Fc融合蛋白; not shown: Fc part of the fusion
As to the kind of experiment: Biacore SPR: antibody captured by anti-human Fab on a CM5 chip, PD-1/Fc as analyte.

The target in test [2] is T2, ICOS/Fc (UniProt Q9Y6W8 21-141).
T2 construct: not shown: Fc part of the fusion
T2 sequence (looked up): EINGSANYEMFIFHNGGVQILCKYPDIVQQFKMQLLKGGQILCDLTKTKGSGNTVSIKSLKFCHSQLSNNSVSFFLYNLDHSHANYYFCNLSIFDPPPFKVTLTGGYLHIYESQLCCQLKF
As to the kind of experiment: indirect ELISA, antigen coated at 1 μg/mL, goat anti-human F(ab')2-HRP. Background: ELISA stands for enzyme-linked immunosorbent assay.

Test [3] deals with T3, BTLA/Fc (UniProt Q7Z6A9 31-157, limits assumed).
T3 construct: not shown: Fc part of the fusion
T3 sequence (looked up): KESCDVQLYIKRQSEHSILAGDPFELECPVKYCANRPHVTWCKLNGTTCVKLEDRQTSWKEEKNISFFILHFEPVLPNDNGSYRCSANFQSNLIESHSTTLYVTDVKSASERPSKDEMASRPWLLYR
The test is described as above.

In test [4] the target is T4, CTLA4/Fc (UniProt P16410 36-162, limits assumed).
T4 construct: not shown: Fc part of the fusion
T4 sequence (looked up): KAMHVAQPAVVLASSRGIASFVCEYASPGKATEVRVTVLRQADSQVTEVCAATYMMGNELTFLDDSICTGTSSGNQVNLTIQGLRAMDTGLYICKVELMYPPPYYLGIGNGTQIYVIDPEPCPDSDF
The test is described as above.

In test [5] the target is T5, CD28/Fc (UniProt P10747 19-152).
T5 construct: not shown: Fc part of the fusion
T5 sequence (P10747 19-152 limits assumed): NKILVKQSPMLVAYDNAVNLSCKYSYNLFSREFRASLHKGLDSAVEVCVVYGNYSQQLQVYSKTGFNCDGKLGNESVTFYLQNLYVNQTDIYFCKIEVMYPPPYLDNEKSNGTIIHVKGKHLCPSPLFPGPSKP
The test is described as above.

T1 sequence (Q15116 25-167 limits assumed): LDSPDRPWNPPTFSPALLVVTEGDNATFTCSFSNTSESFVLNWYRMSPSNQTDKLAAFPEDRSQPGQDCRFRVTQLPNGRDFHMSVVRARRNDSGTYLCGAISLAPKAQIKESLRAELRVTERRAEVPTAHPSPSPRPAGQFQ

B1: 本发明制备的抗PD-1抗体 (anti-PD-1 monoclonal antibody of the invention) (antibody, V domains shown)
VH: QVQLVESGGGVVQPGRSLRLNCKASGITFSNSGMHWVRQAPGKGLEWVAVIWYDGSKLYYADSVKGRFTISRDNSKNTLFLQMNSLRAEDTAVYYCATDSDYWGQGTLVTVSS
VL: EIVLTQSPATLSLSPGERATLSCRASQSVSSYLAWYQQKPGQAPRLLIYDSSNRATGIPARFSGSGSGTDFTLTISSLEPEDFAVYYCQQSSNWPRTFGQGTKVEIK
notes: Variable regions cloned into the full-length antibody vector PRT/KIgG1 (IgG1 heavy constant region CH1-CH2-CH3, kappa light constant region); also called 本发明制备抗体
For the molecule B1, in test [1], the Kd – broadly, the concentration at which binding is half-saturated – was found to be 0.328 nM. Besides, the koff (usually a measure of how fast the partners let go of each other) in test [1] was found to be 9.6e-05 s⁻¹. The association rate constant (kon) (as a rule, the rate constant with which the complex forms) in test [1] came out at 292000 M⁻¹ s⁻¹. The binding result in test [2], in test [3], in test [4] and in test [5] was “no binding (tested: antibody at 1 μg/mL)” in each case.
